Measurements taken from patent publication US20230144459A1, “SHEDDING BLOCKING AGENTS WITH INCREASED STABILITY” (BIOND BIOLOGICS LTD., priority 2020, published 2023).

Legend:
[1] = molecular target: T1, human CD28 stalk region dimeric peptide (Homo sapiens, UniProt P10747); experiment: CD28 stalk region binding assay (ELISA), wild-type peptide; details: serial dilution ELISA
T1 construct: purchased Genecust Europe (custom synthesis, stated for the tagged peptide); host or cells: synthetic peptide

[2] = molecular target: T2, CD28 shedding in HEK cells overexpressing human CD28 (Homo sapiens, UniProt P10747); experiment: HEK spontaneous CD28 shedding assay; type: cell-based; details: 48 hr, 3.3-100 μg/mL
T2 construct: HEK293 cells overexpressing human full-length CD28 were analyzed; expressed in transfected cells

[3] = molecular target: T3, CD28 shedding in isolated human CD4 T cells (Homo sapiens, UniProt P10747); experiment: CD28 shedding in isolated CD4 T cells activated by PHA and IL2; type: cell-based; details: 5 μg/mL PHA, 200 IU/mL IL-2; 0.4-50 μg/mL
T3 construct: endogenous in cells; host or cells: CD4 T cells and PBMCs from fresh blood of healthy donors

CD28 shedding in PBMC = molecular target: T4, CD28 shedding in PBMC (Homo sapiens, UniProt P10747); experiment: CD28 shedding in PBMC activated by superantigen (SEB); type: cell-based; details: 1 ng/mL SEB; 0.4-50 μg/mL
T4 construct: endogenous in cells; host or cells: CD4 T cells and PBMCs from fresh blood of healthy donors
Method: FIG. 9. […] Levels of soluble CD28 were measured in culture media of isolated PBMC stimulated with 1 ng/mL SEB (light grey bar). […] The levels of soluble human CD28 in the supernatant were quantified with standardized sandwich ELISA (R&D system).
Cellular assays evaluating anti shedding activity of VHH—For SEB activation of PBMCs, 0.1×10^6 PBMCs were stimulated with […] SEB (Sigma, Cat. No. S4881) for 5-7 days at 37° C. with/without the indicated concentrations of various treatments in 96 well plates. For PHA activated T cells, 0.1×10^6 CD4 T cells were incubated with the indicated concentration of Phytohemagglutinin (Sigma, Cat. No. L8902) and 200 IU/mL of IL-2 (Proleukine) for 5-7 days at 37° C. with/without the indicated concentrations of various treatments in 96 well plates. For HEK spontaneous CD28 shedding assay, 0.1×10^5 HEK cells were incubated for 48 hours at 37° C. with/without the indicated concentrations of various treatments in 96 well plates.

B1: 4A1: VHH clone binding the stalk region of human CD28, SEQ ID NO: 35 (protein)
VHH: QVQLVESGGGLVQAGGSLRLSCAASGSIFSINAMGWYRQAPGKQRERVAAITSGGSTNYADSVKGRFTISRDNAKNTVYLQMNNLEPRDAGVYYCVVDLYGEDYWIWGQGTQVTVSSAAAHHHHHH
- binding to human CD28 stalk region peptide (in words) [1]: bind specifically

B2: 4A4: VHH clone binding the stalk region of human CD28, SEQ ID NO: 34 (protein)
VHH: EVQLVESGGGLVQAGGSLRLSCAASGSLFSINAMAWYRQAPGKQRELVAAITSSGSTNYANSVKGRFTVSRDNAKNTMYLQMNSLKPEDTAVYYCVVDEYGSDYWIWGQGTQVTVSSAAAHHHHHH
- binding to human CD28 stalk region peptide (in words) [1]: bind specifically
- inhibition of CD28 shedding, HEK cells overexpressing human CD28 [2]: inhibit CD28 shedding
- inhibition of CD28 shedding, CD4 T cells activated by PHA and IL2 [3]: inhibit CD28 shedding
- inhibition of CD28 shedding, PBMC activated by SEB (CD28 shedding in PBMC): inhibit CD28 shedding
